The test concerns the target T1, recombinant CC-CKR1 receptor (UniProt P32246 1-355, limits assumed).
T1 construct: whole, on cells; The assay used either THP-1 cells or COS cells expressing recombinant CC-CKR1; also called CCKR1 receptors
T1 sequence (looked up): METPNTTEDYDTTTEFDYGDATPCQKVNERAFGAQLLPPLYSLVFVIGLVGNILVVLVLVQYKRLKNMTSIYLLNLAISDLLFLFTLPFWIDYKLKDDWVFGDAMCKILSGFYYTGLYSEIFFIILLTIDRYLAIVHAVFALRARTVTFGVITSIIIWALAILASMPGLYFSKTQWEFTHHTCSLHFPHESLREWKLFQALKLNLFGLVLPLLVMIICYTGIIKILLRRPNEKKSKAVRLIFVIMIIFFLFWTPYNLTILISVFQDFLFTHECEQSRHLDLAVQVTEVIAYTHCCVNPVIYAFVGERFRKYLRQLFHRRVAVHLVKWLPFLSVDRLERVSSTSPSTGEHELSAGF
As to the kind of experiment: radioligand competition on cells (THP-1 or COS expressing CC-CKR1), [125I]RANTES tracer, competitor Met-RANTES. As for the experimental part:
The competition assay was carried out in 96 well multi-screen filter-phase (Millipore, MADV N6500) which had been pretreated for 2 h with 50 mM HEPES buffer, pH 7.2 containing 1 mM CaCl_2, 5 mM MgCl_2, and 0.5% BSA, (binding buffer). The assay was performed using either THP-1 cells or COS cells expressing the recombinant CC-CKR1 receptor (Neote, K., DiGregorio, Mak, J. Y., Horuk, R., and Schall, T. J., (1993) Molecular cloning, functional expression, and signalling characteristics of a C—C chemokine receptor, *Cell* 72 415–425; Gao, J. L., et al, *J. Exp. Med.* 177 1421–7 (1993)). Each well contained 10^5 cells in a volume of 150 μl of binding buffer containing 0.4 nM [I^125]Mip-1a or 0.4 nM [I^125]RANTES (new England Nuclear, Nex 277) and varying concentrations of competing Met-RANTES. Assays were performed in triplicate. After 90 min incubation at 4° C., the cells were washed 4 times with 200 μl ice cold binding buffer containing 0.5 M NaCl which was removed by aspiration. The filters were dried, 3.5 ml Ultima Gold Scintillation fluid added (Packard) and counted on a Beckman LS5000 counter.

B1: methionylated RANTES (ligand)
chain: MSPYSSDTTPCCFAYIARPLPRAHIKEYFYTSGKCSNPAVVFVTRKNRQVCANPEKKWVREYINSLEMS
notes: also called Met-RANTES
Consider B1, for which the binding result is on record as “binds”.

These data come from patent US6555105 (GlaxoSmithKline, dated 2003).
